# IntAct's records for PubMed 32296183
# B1: Golgi SNAP receptor complex member 2 (Homo sapiens), O14653 (parent)
# chain: MDPLFQQTHKQVHEIQSCMGRLETADKQSVHIVENEIQASIDQIFSRLERLEILSSKEPPNKRQNARLRVDQLKYDVQHLQTALRNFQHRRHAREQQERQREELLSRTFTTNDSDTTIPMDESLQFNSSLQKVHNGMDDLILDGHNILDGLRTQRLTLKGTQKKILDIANMLGLSNTVMRLIEKRAFQDKYFMIGGMLLTCVVMFLVVQYLT
# partner: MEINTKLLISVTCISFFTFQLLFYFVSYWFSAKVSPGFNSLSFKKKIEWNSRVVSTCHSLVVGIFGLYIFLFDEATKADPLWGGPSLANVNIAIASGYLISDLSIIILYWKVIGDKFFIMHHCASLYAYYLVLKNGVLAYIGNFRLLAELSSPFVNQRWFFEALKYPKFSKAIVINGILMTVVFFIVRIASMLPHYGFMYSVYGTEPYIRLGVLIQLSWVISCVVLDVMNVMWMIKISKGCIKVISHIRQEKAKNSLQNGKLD
# B2: Catenin alpha-3 (Homo sapiens), Q9UI47-2 (parent)
# chain: MSAETPITLNIDPQDLQVQTFTVEKLLEPLIIQVTTLVNCPQNPSSRKKGRSKRASVLLASVEEATWNLLDKGEKIAQEATVLKDELTASLEEVRKESEALKVSAERFTDDPCFLPKREAVVQAARALLAAVTRLLILADMIDVMCLLQHVSAFQRTFESLKNVANKSDLQKTYQKLGKELENLDYLAFKRQQDLKSPNQRDEIAGARASLKENSPLLHSICSACLEHSDVASLKASKDTVCEEIQNALNVISNASQGIQNMTTPPEPQAATLGSALDELENLIVLNPLTVTEEEIRPSLEKRLEAIISGAALLADSSCTRDLHRERIIAECNAIRQALQDLLSEYMNNAGKKERSNTLNIALDNMCKKTRDLRRQLRKAIIDHVSDSFLDTTVPLLVLIEAAKNGREKEIKEYAAIFHEHTSRLVEVANLACSMSTNEDGIKIVKIAANHLETLCPQIINAALALAARPKSQAVKNTMEMYKRTWENHIHVLTEAVDDITSIDDFLAVSGMFLFF
# partner: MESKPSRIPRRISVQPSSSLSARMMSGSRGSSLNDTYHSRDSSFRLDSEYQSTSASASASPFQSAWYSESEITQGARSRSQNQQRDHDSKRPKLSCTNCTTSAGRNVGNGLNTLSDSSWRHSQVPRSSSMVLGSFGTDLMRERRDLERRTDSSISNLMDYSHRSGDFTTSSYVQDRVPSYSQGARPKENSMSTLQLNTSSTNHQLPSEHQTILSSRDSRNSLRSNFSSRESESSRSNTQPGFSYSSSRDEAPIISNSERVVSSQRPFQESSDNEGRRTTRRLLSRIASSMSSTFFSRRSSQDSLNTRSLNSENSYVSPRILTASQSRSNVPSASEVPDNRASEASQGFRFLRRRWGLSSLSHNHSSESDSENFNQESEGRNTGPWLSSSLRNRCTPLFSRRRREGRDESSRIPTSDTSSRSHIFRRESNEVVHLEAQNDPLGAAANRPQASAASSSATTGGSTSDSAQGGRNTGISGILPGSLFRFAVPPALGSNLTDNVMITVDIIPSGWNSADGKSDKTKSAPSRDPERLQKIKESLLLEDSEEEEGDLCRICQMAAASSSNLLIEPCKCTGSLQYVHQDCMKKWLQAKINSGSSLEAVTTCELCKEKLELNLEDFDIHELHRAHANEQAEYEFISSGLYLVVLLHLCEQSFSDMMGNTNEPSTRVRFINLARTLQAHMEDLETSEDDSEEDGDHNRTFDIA
# B3: Catenin alpha-3 (Homo sapiens), Q9UI47-2 (parent)
# chain: B2 chain
# partner: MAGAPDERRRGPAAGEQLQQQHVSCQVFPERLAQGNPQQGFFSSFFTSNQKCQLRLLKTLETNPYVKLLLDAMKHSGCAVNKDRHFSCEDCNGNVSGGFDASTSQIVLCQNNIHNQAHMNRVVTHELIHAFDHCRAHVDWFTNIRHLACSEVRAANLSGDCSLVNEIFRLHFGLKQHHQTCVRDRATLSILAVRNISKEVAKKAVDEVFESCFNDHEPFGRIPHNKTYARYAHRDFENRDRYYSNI
# B4: Golgi SNAP receptor complex member 2 (Homo sapiens), O14653 (parent)
# chain: B1 chain
# partner: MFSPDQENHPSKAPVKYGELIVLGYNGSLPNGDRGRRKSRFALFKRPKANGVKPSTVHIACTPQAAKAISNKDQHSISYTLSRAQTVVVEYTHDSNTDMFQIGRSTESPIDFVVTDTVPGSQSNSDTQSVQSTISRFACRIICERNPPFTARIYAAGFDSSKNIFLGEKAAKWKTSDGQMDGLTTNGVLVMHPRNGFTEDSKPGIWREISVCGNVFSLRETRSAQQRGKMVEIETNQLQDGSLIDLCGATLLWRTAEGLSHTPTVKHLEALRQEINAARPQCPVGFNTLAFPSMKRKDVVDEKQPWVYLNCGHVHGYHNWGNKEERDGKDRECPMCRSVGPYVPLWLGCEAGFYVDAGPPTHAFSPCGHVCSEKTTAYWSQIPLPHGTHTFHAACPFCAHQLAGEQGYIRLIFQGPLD
# B5: Catenin alpha-3 (Homo sapiens), Q9UI47-2 (parent)
# chain: B2 chain
# B6: Golgi SNAP receptor complex member 2 (Homo sapiens), O14653 (parent)
# chain: B1 chain
# partner: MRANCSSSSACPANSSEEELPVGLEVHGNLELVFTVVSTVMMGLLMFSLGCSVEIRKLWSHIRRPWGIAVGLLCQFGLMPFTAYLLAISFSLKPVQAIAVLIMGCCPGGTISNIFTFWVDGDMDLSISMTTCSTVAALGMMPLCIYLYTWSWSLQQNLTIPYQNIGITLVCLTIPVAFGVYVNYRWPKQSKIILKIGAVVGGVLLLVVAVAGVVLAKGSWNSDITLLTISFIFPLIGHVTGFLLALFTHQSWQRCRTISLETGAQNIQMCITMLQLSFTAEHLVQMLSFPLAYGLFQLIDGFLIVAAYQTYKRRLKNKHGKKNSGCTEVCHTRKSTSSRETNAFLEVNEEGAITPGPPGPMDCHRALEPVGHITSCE
# B7: Succinate--CoA ligase [ADP-forming] subunit beta, mitochondrial (Homo sapiens), Q9P2R7 (parent)
# chain: MAASMFYGRLVAVATLRNHRPRTAQRAAAQVLGSSGLFNNHGLQVQQQQQRNLSLHEYMSMELLQEAGVSVPKGYVAKSPDEAYAIAKKLGSKDVVIKAQVLAGGRGKGTFESGLKGGVKIVFSPEEAKAVSSQMIGKKLFTKQTGEKGRICNQVLVCERKYPRREYYFAITMERSFQGPVLIGSSHGGVNIEDVAAESPEAIIKEPIDIEEGIKKEQALQLAQKMGFPPNIVESAAENMVKLYSLFLKYDATMIEINPMVEDSDGAVLCMDAKINFDSNSAYRQKKIFDLQDWTQEDERDKDAAKANLNYIGLDGNIGCLVNGAGLAMATMDIIKLHGGTPANFLDVGGGATVHQVTEAFKLITSDKKVLAILVNIFGGIMRCDVIAQGIVMAVKDLEIKIPVVVRLQGTRVDDAKALIADSGLKILACDDLDEAARMVVKLSEIVTLAKQAHVDVKFQLPI
# partner: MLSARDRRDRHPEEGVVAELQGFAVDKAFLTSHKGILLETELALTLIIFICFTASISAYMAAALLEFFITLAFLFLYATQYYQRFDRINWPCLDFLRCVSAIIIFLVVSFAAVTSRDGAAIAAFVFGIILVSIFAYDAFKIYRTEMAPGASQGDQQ
# B8: Golgi SNAP receptor complex member 2 (Homo sapiens), O14653 (parent)
# chain: B1 chain
# partner: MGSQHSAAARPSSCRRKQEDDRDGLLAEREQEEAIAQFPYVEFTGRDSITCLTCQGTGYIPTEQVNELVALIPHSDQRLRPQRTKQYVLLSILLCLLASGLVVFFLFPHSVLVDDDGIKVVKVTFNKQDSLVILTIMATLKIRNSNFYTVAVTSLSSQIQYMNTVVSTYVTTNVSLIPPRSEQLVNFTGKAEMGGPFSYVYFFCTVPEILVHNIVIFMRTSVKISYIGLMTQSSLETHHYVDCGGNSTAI
# B9: Ceroid-lipofuscinosis neuronal protein 6 (Homo sapiens), Q9NWW5 (parent)
# chain: MEATRRRQHLGATGGPGAQLGASFLQARHGSVSADEAARTAPFHLDLWFYFTLQNWVLDFGRPIAMLVFPLEWFPLNKPSVGDYFHMAYNVITPFLLLKLIERSPRTLPRSITYVSIIIFIMGASIHLVGDSVNHRLLFSGYQHHLSVRENPIIKNLKPETLIDSFELLYYYDEYLGHCMWYIPFFLILFMYFSGCFTASKAESLIPGPALLLVAPSGLYYWYLVTEGQIFILFIFTFFAMLALVLHQKRKRLFLDSNGLFLFSSFALTLLLVALWVAWLWNDPVLRKKYPGVIYVPEPWAFYTLHVSSRH
# partner: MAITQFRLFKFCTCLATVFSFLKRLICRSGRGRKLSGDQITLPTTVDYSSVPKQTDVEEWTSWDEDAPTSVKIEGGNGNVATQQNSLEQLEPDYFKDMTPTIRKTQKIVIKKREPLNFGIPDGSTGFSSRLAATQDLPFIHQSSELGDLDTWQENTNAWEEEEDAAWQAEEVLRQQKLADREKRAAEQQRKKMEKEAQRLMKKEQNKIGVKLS
# Variants of: B1
# Conditions: with tlcd4_human TLCD4, Q96MV1
row,effect of a mutation on the interaction,Variant
1,with no effect,G144W

# Variants of: B2
# Conditions: with marh7_human MARCHF7, Q9H992
row,effect of a mutation on the interaction,Variant
1,with no effect,V94D

# Variants of: B3
# Conditions: with atp23_human ATP23, Q9Y6H3
row,effect of a mutation on the interaction,Variant
1,disrupting interaction strength,V94D

# Variants of: B4
# Conditions: with peli1_human PELI1, Q96FA3
row,effect of a mutation on the interaction,Variant
1,disrupting interaction strength,G144W

# Variants of: B5
# Conditions: with katl1_human KATNAL1, Q9BW62
# Sequence of katl1_human KATNAL1, Q9BW62 (Q9BW62 whole entry): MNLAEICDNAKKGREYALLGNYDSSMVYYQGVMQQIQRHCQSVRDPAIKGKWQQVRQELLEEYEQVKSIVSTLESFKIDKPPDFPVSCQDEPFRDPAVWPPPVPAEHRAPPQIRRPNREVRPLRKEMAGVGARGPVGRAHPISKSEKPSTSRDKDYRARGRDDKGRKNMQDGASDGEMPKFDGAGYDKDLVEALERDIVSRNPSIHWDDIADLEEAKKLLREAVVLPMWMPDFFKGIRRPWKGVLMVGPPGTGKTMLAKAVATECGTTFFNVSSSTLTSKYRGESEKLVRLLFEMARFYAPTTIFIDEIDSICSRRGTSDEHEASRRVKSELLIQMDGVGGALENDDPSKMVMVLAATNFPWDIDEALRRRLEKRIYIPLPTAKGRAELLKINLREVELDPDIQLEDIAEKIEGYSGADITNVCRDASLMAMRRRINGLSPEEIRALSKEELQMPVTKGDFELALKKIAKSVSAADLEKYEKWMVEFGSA
row,effect of a mutation on the interaction,Variant
1,disrupting interaction strength,V94D

# Variants of: B5
# Conditions: with pax6_human PAX6, P26367
# Sequence of pax6_human PAX6, P26367 (P26367 whole entry): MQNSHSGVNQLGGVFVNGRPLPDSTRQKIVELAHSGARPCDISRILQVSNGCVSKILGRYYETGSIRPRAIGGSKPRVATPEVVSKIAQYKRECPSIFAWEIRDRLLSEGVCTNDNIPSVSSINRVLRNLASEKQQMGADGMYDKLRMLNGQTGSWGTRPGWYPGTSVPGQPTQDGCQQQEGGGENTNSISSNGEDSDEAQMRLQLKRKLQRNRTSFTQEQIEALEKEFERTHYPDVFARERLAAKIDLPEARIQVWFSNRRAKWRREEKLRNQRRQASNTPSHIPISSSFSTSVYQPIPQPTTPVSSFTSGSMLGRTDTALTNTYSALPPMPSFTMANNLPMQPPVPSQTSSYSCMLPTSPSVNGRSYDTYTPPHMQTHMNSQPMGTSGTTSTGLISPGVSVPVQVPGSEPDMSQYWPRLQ
row,effect of a mutation on the interaction,Variant
1,with no effect,V94D

# Variants of: B5
# Conditions: with taso2_human TASOR2, Q5VWN6
# Sequence of taso2_human TASOR2, Q5VWN6 (Q5VWN6 whole entry): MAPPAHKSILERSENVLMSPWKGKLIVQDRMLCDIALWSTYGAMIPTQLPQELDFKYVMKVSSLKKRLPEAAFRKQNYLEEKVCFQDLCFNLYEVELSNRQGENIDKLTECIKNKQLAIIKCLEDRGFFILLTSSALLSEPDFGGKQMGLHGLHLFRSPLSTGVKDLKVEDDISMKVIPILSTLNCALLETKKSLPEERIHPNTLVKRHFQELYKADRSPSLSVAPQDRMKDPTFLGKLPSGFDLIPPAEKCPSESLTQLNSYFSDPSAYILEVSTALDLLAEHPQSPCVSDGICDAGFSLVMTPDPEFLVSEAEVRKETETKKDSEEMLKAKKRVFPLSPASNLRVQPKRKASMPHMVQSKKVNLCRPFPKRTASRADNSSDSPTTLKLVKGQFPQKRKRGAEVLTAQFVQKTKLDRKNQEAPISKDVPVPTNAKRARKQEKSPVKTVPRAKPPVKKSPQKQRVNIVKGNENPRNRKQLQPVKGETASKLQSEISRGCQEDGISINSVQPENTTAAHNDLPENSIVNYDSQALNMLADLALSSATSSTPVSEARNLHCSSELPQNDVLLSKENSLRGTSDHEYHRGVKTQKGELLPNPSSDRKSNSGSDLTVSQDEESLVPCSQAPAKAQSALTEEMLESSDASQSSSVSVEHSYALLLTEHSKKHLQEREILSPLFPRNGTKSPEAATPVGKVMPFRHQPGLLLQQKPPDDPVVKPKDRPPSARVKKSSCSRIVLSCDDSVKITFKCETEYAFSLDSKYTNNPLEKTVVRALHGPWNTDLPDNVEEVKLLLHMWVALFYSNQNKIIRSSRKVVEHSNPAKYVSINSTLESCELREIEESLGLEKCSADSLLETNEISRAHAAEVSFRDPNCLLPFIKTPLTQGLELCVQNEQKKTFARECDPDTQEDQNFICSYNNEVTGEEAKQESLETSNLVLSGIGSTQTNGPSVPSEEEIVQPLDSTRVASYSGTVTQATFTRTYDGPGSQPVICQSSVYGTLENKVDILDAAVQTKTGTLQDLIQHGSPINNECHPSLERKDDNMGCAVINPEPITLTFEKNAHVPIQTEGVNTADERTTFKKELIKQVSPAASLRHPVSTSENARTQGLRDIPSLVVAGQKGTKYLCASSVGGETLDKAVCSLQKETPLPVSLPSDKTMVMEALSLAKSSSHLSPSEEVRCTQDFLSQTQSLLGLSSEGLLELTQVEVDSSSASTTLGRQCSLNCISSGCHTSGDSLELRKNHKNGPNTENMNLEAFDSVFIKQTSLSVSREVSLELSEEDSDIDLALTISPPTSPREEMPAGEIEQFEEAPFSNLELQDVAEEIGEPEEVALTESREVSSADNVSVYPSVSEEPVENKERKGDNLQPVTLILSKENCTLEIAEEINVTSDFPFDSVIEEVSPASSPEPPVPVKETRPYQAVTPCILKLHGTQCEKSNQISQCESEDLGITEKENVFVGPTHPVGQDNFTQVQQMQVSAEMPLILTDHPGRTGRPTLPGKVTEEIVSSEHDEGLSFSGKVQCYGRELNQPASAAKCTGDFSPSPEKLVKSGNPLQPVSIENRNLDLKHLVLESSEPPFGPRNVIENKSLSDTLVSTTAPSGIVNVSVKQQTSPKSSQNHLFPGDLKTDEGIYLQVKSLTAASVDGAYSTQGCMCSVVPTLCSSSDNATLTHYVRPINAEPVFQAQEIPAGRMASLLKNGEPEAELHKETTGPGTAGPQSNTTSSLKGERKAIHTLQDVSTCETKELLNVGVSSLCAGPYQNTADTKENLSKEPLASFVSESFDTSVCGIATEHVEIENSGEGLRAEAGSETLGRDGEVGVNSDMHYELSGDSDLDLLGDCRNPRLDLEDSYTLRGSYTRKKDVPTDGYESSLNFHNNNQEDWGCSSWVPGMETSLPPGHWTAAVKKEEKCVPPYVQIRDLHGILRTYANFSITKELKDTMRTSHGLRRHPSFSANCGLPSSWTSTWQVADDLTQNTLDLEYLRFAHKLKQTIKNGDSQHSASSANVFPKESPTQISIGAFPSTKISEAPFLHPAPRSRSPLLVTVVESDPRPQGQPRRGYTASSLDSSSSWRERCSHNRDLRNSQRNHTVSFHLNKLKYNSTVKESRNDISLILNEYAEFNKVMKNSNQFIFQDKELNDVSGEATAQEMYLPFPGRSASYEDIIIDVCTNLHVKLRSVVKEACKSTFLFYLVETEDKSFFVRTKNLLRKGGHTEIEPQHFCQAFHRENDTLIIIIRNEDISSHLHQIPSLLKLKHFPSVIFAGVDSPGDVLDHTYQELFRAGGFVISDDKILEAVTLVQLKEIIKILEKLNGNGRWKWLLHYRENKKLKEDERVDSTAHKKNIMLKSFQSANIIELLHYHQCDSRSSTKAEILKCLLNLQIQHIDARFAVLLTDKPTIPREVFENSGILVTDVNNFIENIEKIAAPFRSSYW
row,effect of a mutation on the interaction,Variant
1,with no effect,V94D

# Variants of: B5
# Conditions: with pnma5_human PNMA5, Q96PV4
# Sequence of pnma5_human PNMA5, Q96PV4 (Q96PV4 whole entry): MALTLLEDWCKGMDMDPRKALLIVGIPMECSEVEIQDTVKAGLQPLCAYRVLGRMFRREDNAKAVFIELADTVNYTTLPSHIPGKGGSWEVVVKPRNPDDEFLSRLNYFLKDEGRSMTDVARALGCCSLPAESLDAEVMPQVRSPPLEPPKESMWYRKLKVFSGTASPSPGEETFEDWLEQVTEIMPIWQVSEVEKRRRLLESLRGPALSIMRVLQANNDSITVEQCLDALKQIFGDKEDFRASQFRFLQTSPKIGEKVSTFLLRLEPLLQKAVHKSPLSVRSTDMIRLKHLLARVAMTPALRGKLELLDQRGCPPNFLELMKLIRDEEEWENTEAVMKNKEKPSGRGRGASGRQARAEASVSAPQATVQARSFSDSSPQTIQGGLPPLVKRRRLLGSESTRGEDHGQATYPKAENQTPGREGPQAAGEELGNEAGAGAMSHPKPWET
row,effect of a mutation on the interaction,Variant
1,with no effect,V94D

# Variants of: B5
# Conditions: with ms18b_human OIP5, O43482
# Sequence of ms18b_human OIP5, O43482 (O43482 whole entry): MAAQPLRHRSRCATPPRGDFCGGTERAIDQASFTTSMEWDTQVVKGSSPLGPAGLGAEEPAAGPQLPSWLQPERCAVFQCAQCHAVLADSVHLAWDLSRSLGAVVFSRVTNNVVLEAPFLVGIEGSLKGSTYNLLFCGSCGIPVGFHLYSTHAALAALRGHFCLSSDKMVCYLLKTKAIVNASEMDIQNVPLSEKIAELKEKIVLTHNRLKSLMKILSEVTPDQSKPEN
row,effect of a mutation on the interaction,Variant
1,disrupting interaction strength,V94D

# Variants of: B5
# Conditions: with cq050_human C17orf50, Q8WW18
# Sequence of cq050_human C17orf50, Q8WW18 (Q8WW18 whole entry): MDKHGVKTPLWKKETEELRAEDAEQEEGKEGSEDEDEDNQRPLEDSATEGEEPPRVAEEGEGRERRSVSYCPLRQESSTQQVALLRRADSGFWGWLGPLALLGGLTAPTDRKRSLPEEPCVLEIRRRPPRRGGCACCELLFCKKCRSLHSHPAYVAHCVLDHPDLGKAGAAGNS
row,effect of a mutation on the interaction,Variant
1,disrupting interaction strength,V94D

# Variants of: B5
# Conditions: with mb3l1_human MBD3L1, Q8WWY6
# Sequence of mb3l1_human MBD3L1, Q8WWY6 (Q8WWY6 whole entry): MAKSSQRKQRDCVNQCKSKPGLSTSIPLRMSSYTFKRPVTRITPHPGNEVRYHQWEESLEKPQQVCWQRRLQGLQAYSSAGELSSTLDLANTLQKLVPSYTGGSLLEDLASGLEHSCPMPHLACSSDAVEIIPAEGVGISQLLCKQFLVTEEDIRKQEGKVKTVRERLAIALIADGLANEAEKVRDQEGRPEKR
row,effect of a mutation on the interaction,Variant
1,with no effect,V94D

# Variants of: B5
# Conditions: with PRR5, P85299-2
row,effect of a mutation on the interaction,Variant
1,disrupting interaction strength,V94D

# Variants of: B5
# Conditions: with cenps_human CENPS
row,effect of a mutation on the interaction,Variant
1,disrupting interaction strength,V94D

# Variants of: B5
# Conditions: with zn552_human ZNF552, Q9H707
# Sequence of zn552_human ZNF552, Q9H707 (Q9H707 whole entry): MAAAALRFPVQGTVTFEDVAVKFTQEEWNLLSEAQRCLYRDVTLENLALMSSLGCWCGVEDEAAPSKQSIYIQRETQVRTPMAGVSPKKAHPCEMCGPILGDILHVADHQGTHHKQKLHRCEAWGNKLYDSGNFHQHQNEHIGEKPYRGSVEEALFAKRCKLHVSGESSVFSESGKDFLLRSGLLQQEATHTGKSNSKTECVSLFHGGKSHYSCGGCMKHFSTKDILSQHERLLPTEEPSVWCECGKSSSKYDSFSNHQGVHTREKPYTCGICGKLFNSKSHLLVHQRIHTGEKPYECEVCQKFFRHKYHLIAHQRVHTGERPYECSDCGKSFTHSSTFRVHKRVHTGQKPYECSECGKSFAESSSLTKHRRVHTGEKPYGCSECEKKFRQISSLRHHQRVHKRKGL
row,effect of a mutation on the interaction,Variant
1,disrupting interaction strength,V94D

# Variants of: B6
# Conditions: with soat_human SLC10A6, Q3KNW5
row,effect of a mutation on the interaction,Variant
1,with no effect,G144W

# Variants of: B7
# Conditions: with CMTM5, Q96DZ9-2
row,effect of a mutation on the interaction,Variant
1,disrupting interaction strength,G118R
2,disrupting interaction strength,D251N

# Variants of: B8
# Conditions: with TMEM106C
row,effect of a mutation on the interaction,Variant
1,disrupting interaction strength,G144W

# Variants of: B9
# Conditions: with rcas1_human EBAG9, O00559
row,effect of a mutation on the interaction,Variant
1,with no effect,G123D
2,with no effect,R6T
3,with no effect,L47F
